Source: patent US6531306
Where two headings read alike, the source gives them in different places.

Tests used:
[1] = tested on: MAbs specific for DNA-dependent ATPase A
[2] = target: T1, Active DNA-dependent ATPase A Domain (ADAAD, 82 kDa) (Bos taurus) (UniProt Q9TTA5); conditions: blunt-ended stem-loop, dG 18.4; ATP hydrolysis; SEQ:1 inferred
T1 sequence: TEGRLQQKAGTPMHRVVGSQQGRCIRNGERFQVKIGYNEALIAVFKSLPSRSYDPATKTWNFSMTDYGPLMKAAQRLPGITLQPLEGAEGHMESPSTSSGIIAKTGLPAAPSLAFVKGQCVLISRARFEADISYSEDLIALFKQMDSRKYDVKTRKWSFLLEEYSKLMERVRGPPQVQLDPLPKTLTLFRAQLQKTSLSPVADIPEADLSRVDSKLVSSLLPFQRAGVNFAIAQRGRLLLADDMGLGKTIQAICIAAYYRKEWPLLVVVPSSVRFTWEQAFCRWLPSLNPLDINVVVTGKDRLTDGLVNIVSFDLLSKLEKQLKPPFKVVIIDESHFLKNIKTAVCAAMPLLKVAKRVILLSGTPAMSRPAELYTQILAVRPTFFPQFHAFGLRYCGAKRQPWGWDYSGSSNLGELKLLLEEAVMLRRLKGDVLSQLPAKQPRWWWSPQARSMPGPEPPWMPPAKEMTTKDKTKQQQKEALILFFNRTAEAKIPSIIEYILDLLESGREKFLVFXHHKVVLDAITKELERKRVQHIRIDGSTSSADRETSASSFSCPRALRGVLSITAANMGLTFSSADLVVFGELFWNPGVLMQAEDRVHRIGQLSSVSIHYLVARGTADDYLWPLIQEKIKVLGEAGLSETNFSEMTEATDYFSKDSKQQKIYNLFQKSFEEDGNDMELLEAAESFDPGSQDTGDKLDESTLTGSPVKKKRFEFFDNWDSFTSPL

[3] = target: T1, Active DNA-dependent ATPase A Domain (ADAAD, 82 kDa) (Bos taurus); conditions: ATP hydrolysis
[4] = target: T1, Active DNA-dependent ATPase A Domain (ADAAD, 82 kDa) (Bos taurus); conditions: ATP hydrolysis; remark: listed apart in the source
[5] = target: T1, Active DNA-dependent ATPase A Domain (ADAAD, 82 kDa) (Bos taurus); conditions: ATP hydrolysis; remark: listed apart in the source
[6] = target: T1, Active DNA-dependent ATPase A Domain (ADAAD, 82 kDa) (Bos taurus); conditions: apparent binding constant from ATP hydrolysis kinetics

For DNA-dependent ATPase A, the “DNA-dependent ATP hydrolysis in vitro” value [1] was “none of the MAbs demonstrate inhibition of DNA-dependent ATP hydrolysis in vitro”.

“GCGCAATTGCGCTCGACGATTTTTTAGCGCAATTGCGC [stem-loop DNA, 12-base loop]” was tested, and the activity (relative activity) [2] was 90.

“Table 16 structure 6 AT-rich blunt-ended duplex” gave an activity (relative activity) [3] of 49.

For “Table 16 structure 7 blunt-ended duplex, 4 base mismatch”, the activity (relative activity) [4] was 66.5.

“Table 16 structure 8 blunt-ended duplex, 10 base mismatch” gave an activity (relative activity) [5] of 83.7.

Work on stem-loop DNA, 3-base loop yielded a Ka [6] of 2e+07 M⁻¹.

Substance stem-loop DNA, 6-base loop has a Ka [6] of 5e+07 M⁻¹.

In the case of stem-loop DNA, 9-base loop, the Ka [6] is reported as 8e+07 M⁻¹.
